Substrate in the series: O=CCCC(=O)C(=O)O
As to the kind of experiment: purified protein. It counts as biochemical, Corynebacterium glutamicum. To be noted: 5 mM NAD+, 100 mM potassium phosphate, pH 7.5, 30 °C.

B1: KsaD (Cg0535) (Corynebacterium glutamicum ATCC 13032) (protein)
chain: MITATALHGCSLIDGEWVAGKNGEITGFDPRTNASLNPSYSLANSAQLRAATTSAKRAFESYRLTTPEVRADFLDSIADNIDALSGEIVQRASLETGLGTTRLTGEVARTSNQLRLFAETVRSGQFHRVRIERGPRIDLRQRQVPLGPVAVFGASNFPVAFSTAGGDTASALAAGCPVVFKAHNAHPGTAELVGQAVRGAVEKHEFDAGVFNLVYGRGVEIGQELAADPNITAIGFTGSRQGGLALSQTAFSRPVPVPVFAEMSATNPVFVFPGALADLDASSSLAEAFTASVTGSSGQLCTKPGLVFIPRGVVGDAFVALVAAKFKETTGQTMLTQGIAQAWQRGVDNLAAQPSVKILAQGTPGDGENAPGPVVFESDVQALLNNVVLQEEIFGAASLVVRYDSPDQLHQVANSLEGQLTATIHASQDDFQEVSKLIPLLEDLAGRVLYGGWPTGVEVGHTVIHGGPYPATSNAQSTSVGTLAIERFMRPVSYQTFPAELLPDPVSEANKWAVPREIDR
notes: N-terminus MITATA after tag (from primer)
Consider B1, for which the Michaelis-Menten constant (Km) is 870 µM.

The record behind these values is article PMC6475665, “Alone at last! – Heterologous expression of a single gene is sufficient for establishing the five-step Weimberg pathway in Corynebacterium glutamicum” (Metabolic Engineering Communications, 2019).
